Data taken from US20240369575A1 (Genentech, published 2024).
Like-named read-outs stand apart in the source and are kept apart here.

Key:
XIAP [1] = biological target: T1, XIAP (UniProt P98170 1-497); test: immunoprecipitation from MDP-treated THP1 lysates in 6 M urea buffer, western blot
Description: (§1) THP1 cells were treated with PBS or MDP (1 μg/ml, 30 min). Cells were lysed in 6M urea buffer and immunoprecipitated using indicated RIP2-ubiquitin, K63-linear ubiquitin chain bispecific or control antibodies.

c-IAP1 [2] = biological target: T2, c-IAP1 (UniProt Q13490 1-618); test: as above
Description: as §1

RIP3 [3] = test: IP from HT29 WT or RIP1 KO cells with or without TBZ; western blot RIP3
XIAP [4] = biological target: T1, XIAP; test: IP from THP1 cells with or without MDP (1 ug/ml, 30 min), 6 M urea lysis; western blot XIAP
Description: as §1

c-IAP1 [5] = biological target: T2, c-IAP1; test: IP from THP1 cells with or without MDP (1 ug/ml, 30 min), 6 M urea lysis; western blot c-IAP1
Description: as §1

RIP1 = biological target: T3, RIP1; test: IP with K63-Lin from THP1 cells treated with PBS, TNF, MDP or LPS, 6 M urea lysis; western blot RIP1
T3 construct: also called non-ubiquitinated RIP1 (endogenous, human cell lines); RIPK1
T3 single chain: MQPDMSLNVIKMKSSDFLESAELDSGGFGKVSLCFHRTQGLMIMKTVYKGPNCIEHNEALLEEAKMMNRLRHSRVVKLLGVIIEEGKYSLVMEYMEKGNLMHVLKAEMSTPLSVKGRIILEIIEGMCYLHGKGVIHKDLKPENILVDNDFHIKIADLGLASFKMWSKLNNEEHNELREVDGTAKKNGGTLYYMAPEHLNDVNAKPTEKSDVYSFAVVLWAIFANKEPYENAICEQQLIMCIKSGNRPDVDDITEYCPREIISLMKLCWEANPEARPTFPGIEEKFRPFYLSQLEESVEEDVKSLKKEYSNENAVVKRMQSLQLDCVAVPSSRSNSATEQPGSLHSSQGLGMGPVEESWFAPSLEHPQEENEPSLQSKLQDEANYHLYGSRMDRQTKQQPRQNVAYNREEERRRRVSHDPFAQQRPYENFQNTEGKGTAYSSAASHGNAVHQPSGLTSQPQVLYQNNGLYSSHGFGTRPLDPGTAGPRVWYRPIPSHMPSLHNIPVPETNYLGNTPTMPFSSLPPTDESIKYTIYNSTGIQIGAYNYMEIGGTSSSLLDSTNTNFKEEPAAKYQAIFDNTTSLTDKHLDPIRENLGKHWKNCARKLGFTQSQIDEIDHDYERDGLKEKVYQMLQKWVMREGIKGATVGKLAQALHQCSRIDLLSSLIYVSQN

[6] = biological target: T4, RIP2 modified by mixed and/or branched K63-linked and linear ubiquitin chains (UniProt P0CG48 1-76); test: IP from THP1 cells untreated or treated with MDP (1 ug/ml, 30 min), 6 M urea lysis; western blot RIP2
T4 construct: mature; also called modified RIP2; K63- and linear chain-ubiquitinated RIP2

RIP2 = biological target: T5, RIP2 (Homo sapiens (Human), UniProt O43353 1-540); test: immunoprecipitation from cell lysates in 6 M urea buffer, western blot
T5 construct: also called RIPK2

TRAF2 = biological target: T6, TRAF2 (UniProt Q12933 2-501); test: as above
T6 sequence (looked up): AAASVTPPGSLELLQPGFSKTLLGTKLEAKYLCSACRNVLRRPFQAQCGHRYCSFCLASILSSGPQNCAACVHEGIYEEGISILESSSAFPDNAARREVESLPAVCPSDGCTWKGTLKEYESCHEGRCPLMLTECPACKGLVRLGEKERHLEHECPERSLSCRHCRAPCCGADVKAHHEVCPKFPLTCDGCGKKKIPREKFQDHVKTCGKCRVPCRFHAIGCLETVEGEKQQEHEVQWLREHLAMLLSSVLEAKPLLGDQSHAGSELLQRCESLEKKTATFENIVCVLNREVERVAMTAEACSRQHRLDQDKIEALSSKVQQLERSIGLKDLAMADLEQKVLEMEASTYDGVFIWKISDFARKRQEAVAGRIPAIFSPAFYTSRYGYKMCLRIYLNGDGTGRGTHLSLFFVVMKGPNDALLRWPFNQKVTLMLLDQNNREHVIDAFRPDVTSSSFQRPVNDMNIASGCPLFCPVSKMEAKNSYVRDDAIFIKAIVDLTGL

RIP3 [7] = test: IP from HT29 WT or RIP1 KO cells with or without TBZ; western blot RIP3; remark: listed apart in the source
XIAP [8] = biological target: T1, XIAP; test: IP from THP1 cells with or without MDP (1 ug/ml, 30 min), 6 M urea lysis; western blot XIAP (label cut to XIA on the sheet)
c-IAP1 [9] = biological target: T2, c-IAP1; test: IP from THP1 cells with or without MDP (1 ug/ml, 30 min), 6 M urea lysis; western blot c-IAP1; remark: listed apart in the source

Measured: binding result

T2 sequence (Q13490 whole entry): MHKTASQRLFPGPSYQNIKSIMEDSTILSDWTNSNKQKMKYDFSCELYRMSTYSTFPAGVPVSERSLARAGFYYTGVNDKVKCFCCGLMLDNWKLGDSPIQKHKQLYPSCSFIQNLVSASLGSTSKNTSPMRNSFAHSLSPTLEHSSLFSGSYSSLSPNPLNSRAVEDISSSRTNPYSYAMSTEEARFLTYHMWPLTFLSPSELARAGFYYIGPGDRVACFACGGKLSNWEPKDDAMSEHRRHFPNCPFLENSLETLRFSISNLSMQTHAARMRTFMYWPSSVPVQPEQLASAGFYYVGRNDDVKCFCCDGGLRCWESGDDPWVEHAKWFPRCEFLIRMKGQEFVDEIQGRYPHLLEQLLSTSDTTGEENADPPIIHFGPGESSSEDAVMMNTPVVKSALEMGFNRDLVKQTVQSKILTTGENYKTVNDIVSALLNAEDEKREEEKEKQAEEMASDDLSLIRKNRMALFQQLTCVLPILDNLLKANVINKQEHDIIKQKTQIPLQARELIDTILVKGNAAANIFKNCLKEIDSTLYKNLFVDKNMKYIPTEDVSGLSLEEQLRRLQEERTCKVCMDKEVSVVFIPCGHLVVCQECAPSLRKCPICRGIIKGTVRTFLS
T1 sequence (P98170 whole entry): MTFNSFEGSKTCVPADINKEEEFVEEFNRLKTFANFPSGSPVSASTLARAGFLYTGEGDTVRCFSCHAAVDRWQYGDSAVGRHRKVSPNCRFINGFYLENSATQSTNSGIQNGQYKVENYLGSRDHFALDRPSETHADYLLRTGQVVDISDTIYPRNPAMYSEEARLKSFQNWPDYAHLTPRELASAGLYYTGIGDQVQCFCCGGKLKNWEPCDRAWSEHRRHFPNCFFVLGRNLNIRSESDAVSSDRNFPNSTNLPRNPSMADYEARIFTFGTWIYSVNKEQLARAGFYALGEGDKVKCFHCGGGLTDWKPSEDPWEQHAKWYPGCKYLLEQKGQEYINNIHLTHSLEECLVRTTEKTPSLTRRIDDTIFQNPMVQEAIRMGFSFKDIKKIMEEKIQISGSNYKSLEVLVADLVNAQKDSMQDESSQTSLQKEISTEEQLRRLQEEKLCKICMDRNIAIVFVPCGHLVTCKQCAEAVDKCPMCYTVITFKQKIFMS
RIP3, sequence (chain, as listed by the source limits assumed): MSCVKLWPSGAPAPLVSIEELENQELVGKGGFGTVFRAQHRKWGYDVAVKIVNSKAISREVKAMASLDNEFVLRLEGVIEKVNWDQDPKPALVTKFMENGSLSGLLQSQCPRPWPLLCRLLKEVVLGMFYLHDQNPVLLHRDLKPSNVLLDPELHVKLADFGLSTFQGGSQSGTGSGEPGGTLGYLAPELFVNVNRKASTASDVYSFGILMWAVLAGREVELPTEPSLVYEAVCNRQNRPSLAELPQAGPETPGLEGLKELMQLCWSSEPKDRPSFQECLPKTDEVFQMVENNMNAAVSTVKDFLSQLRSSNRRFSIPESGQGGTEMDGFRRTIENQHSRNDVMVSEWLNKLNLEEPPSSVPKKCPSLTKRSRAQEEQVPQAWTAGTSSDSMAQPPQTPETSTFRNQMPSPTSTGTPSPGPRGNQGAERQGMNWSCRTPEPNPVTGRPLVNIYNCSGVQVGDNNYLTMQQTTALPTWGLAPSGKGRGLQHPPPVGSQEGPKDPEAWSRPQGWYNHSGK
T5 sequence (O43353 whole entry): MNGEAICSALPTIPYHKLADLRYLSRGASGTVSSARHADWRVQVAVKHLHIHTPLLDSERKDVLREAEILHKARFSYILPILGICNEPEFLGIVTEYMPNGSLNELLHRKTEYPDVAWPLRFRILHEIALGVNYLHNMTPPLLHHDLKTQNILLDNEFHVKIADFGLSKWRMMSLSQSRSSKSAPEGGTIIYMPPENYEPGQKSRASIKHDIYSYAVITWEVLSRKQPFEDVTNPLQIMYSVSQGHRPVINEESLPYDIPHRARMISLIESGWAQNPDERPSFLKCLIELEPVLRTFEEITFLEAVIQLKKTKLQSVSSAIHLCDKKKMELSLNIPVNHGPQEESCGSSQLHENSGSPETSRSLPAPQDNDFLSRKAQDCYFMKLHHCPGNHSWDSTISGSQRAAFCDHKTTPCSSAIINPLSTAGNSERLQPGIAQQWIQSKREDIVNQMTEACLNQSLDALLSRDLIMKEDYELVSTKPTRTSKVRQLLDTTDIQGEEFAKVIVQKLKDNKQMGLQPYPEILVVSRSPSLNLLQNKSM
T4 sequence (chain, as listed by the source limits assumed, chain 1 of 2, other chains not shown): as the sequence (O43353 whole entry) above

B1: anti-RIP2/anti-M1 bispecific antibody (bispecific antibody, human IgG1, kappa)
heavy 1: not shown
light 1: DIQMTQSPSSLSASVGDRVTITCRASQDVSTAVAWYQQKPGKAPKLLIYSAKFLYSGVPSRFSGSGSGTDFTLTISSLQPEDFATYYCQQSYTTPPTFGQGTKVEIKRTVAAPSVFIFPPSDEQLKSGTASVVCLLNNFYPREAKVQWKVDNALQSGNSQESVTEQDSKDSTYSLSSTLTLSKADYEKHKVYACEVTHQGLSSPVTKSFNRGEC
heavy 2: not shown
light 2: not shown
notes: also called RIP2-Lin
no binding: XIAP [1] | c-IAP1 [2]

B2: anti-M1/anti-K63 bispecific antibody (bispecific antibody, V domains shown)
VH 1: EVQLVESGGGLVQPGGSLRLSCAASGFNVKTGLIHWVRQAPGKGLEWVAYITPYYGSTSYADSVKGRFTISADTSKNTAYLQMNSLRAEDTAVYYCAREYYRWYTAIDYWGQGTLVTVSS
VL 1: DIQMTQSPSSLSASVGDRVTITCRASQSVSSAVAWYQQKPGEAPKLLIYSARSLYSGVPSRFSGSRSGTDFTLTISSLQPEDFATYYCQQYSSYSSLFTFGQGTKVEIK
VH 2: EVQLVESGGGLVQPGGSLRLSCAASGFTFSNTYISWVRQAPGKGLEWVASITPSSGQTDYADSVKGRFTISADTSKNTAYLQMNSLRAEDTAVYYCARTWLLRWVMDLWGQGTLVTVSS
VL 2: DIQMTQSPSSLSASVGDRVTITCRASQDVSTAVAWYQQKPGKAPKLLIYSAKFLYSGVPSRFSGSGSGTDFTLTISSLQPEDFATYYCQQSYTTPPTFGQGTKVEIK
notes: also called K63-Lin; K63-linear ubiquitin chain bispecific antibody
no binding: RIP3 [3] | XIAP [4] | c-IAP1 [5] | RIP1

B3: anti-RIP1/anti-K63 bispecific antibody (bispecific antibody, human IgG1, kappa)
heavy 1: not shown
light 1: DIQMTQSPSSLSASVGDRVTITCRASQSVSSAVAWYQQKPGEAPKLLIYSARSLYSGVPSRFSGSRSGTDFTLTISSLQPEDFATYYCQQYSSYSSLFTFGQGTKVEIKRTVAAPSVFIFPPSDEQLKSGTASVVCLLNNFYPREAKVQWKVDNALQSGNSQESVTEQDSKDSTYSLSSTLTLSKADYEKHKVYACEVTHQGLSSPVTKSFNRGEC
heavy 2: not shown
light 2: NIMMTQSPSSLAVSAGQKVTMNCKSSQNVIYTSNQRNYLAWYQQKPGQSPKLLIYWASTRVSGVPDRFTGSGSGTDFTLTISSVEVEDLAVYYCHQYLSSWTFGGGTKVEIKRTVAAPSVFIFPPSDEQLKSGTASVVCLLNNFYPREAKVQWKVDNALQSGNSQESVTEQDSKDSTYSLSSTLTLSKADYEKHKVYACEVTHQGLSSPVTKSFNRGEC
notes: also called RIP1-K63; RIP1-K63 ubiquitin chain bispecific antibody
no binding: [6] | RIP2 | TRAF2 | RIP3 [7]

B4: anti-RIP1/anti-M1 bispecific antibody (bispecific antibody, human IgG1, kappa)
heavy 1: not shown
light 1: DIQMTQSPSSLSASVGDRVTITCRASQDVSTAVAWYQQKPGKAPKLLIYSAKFLYSGVPSRFSGSGSGTDFTLTISSLQPEDFATYYCQQSYTTPPTFGQGTKVEIKRTVAAPSVFIFPPSDEQLKSGTASVVCLLNNFYPREAKVQWKVDNALQSGNSQESVTEQDSKDSTYSLSSTLTLSKADYEKHKVYACEVTHQGLSSPVTKSFNRGEC
heavy 2: not shown
light 2: NIMMTQSPSSLAVSAGQKVTMNCKSSQNVIYTSNQRNYLAWYQQKPGQSPKLLIYWASTRVSGVPDRFTGSGSGTDFTLTISSVEVEDLAVYYCHQYLSSWTFGGGTKVEIKRTVAAPSVFIFPPSDEQLKSGTASVVCLLNNFYPREAKVQWKVDNALQSGNSQESVTEQDSKDSTYSLSSTLTLSKADYEKHKVYACEVTHQGLSSPVTKSFNRGEC
notes: also called RIP1-Lin; RIP1-Lin ubiquitin chain bispecific antibody
no binding: RIP2 | TRAF2 | RIP3 [3]

B5: anti-RIP2/anti-K63 bispecific antibody (bispecific antibody, human IgG1, kappa)
heavy 1: not shown
light 1: DIQMTQSPSSLSASVGDRVTITCRASQSVSSAVAWYQQKPGEAPKLLIYSARSLYSGVPSRFSGSRSGTDFTLTISSLQPEDFATYYCQQYSSYSSLFTFGQGTKVEIKRTVAAPSVFIFPPSDEQLKSGTASVVCLLNNFYPREAKVQWKVDNALQSGNSQESVTEQDSKDSTYSLSSTLTLSKADYEKHKVYACEVTHQGLSSPVTKSFNRGEC
heavy 2: not shown
light 2: not shown
notes: also called RIP2-K63
no binding: XIAP [8] | c-IAP1 [9]
